One series concerns bacterial load. Put plainly: Bacterial load (cfu) post CLP-induced septic shock. In kind it is in vivo, C57BL/6J mice. Here is the method:
Blood samples were taken from live mice by facial vein puncture at 4 h post-CLP. Peritoneal, spleen and kidney samples were obtained from euthanized mice at 20 h post-CLP. For peritoneal lavage, euthanized mice were i.p. infused with 3 mL cold PBS. After gently abdominal massaging for 5 min, the peritoneal fluid was collected taking care to avoid clogging by the fat tissue and not to damage internal organs. Blood-contaminated peritoneal samples were discarded. The collected peritoneal fluid was centrifuged (3500 rpm, 10 min at 4° C.) and the pellet resuspended in 200 μL PBS. Spleen (100 mg) and kidney (250 mg) homogenization was performed by pressing the organs with a syringe plunger through a 40 μm cell strainer in 3 mL cold PBS. The resulting homogenates were centrifuged (3500 rpm, 10 min at 4° C.) and pellets resuspended in 750 μL PBS. Serial dilutions of blood, peritoneal lavage, and spleen and kidney homogenates were prepared in sterile PBS for plating on agar with 5% sheep blood (Becton Dikinson, UK) at 37° C. overnight. Viable bacterial counts were expressed as colony-forming units (cfu) per mL or mg.

The subject of series [1] is pro- (TNF-α, IL-1β, IL-6) and anti- (IL-10) inflammatory cytokines. Put plainly: ELISA of cytokine plasma levels post CLP-induced septic shock. In kind it is in vivo, C57BL/6J mice. Here is the method: (§1) Plasma levels of rshCD6 were determined by sandwich ELISA, using unlabelled (161.8) and biotin-labelled (SPV-L14.2) anti-CD6 monoclonal antibodies (2 μg/mL, each) as capture and detection antisera, respectively. Serial dilutions of purified rshCD6 were used as a standard. Diluted or undiluted plasma samples were used for monitoring IL-6 (1:70; Mouse IL-6 ELISA Set, BD Bioscience-555240), TNF-α (1:10; Mouse TNF-α ELISA Set, BD Bioscience-558534), IL-10 (neat; Mouse IL-10 ELISA Set, BD Bioscience-555252), and IL-1β (neat; Mouse IL-1β ELISA Set, BD Bioscience-559603) levels by commercially available ELISA kits, following manufacturer's instructions. Plates were developed with horseradish peroxidase-labeled streptavidin (Roche Diagnostics) and TMB Substrate Reagent Set (BD OptEIA, BD Biosciences), and further measurement of optical density at 450 nm (OD450 nm).
(An ELISA detects its analyte on a solid surface through an enzyme-linked reagent.)

The subject of another series is LPS-induced septic shock. To be noted: intraperitoneal (i.p.) administration, mice; cited from earlier work.
On the set-up of series [2]: species or system C57BL/6J mice. To be noted: mouse, in vivo, 1.25 mg/kg. The protocol:
as §1

For series [3], the system named is septic shock induced by G+ and G− bacterial endotoxins (LTA+PGN, and LPS) and whole alive bacteria (Staphylococcus aureus, Acinetobacter baumannii). To be noted: prophylactic infusion; mouse models of septic shock; cited from earlier work.
Series [4] concerns CLP-induced polymicrobial septic shock. Put plainly: Mouse survival after cecal ligation and puncture (CLP)-induced septic shock.
Experimental: CLP-induced septic shock was induced in 8-10 week old C57BL/6J male mice (20-25 g; Charles River) following previously reported methods (Rittirsch D, et al., 2009. Immunodesign of experimental sepsis by cecal ligation and puncture. Nat Protoc 4:31-36). The severity of the CLP model was adjusted to achieve a high-grade mortality (meaning ≥90% mortality in the first 48-72 h) by ligating 75% of cecum. Mice were anesthetized with 100 mg/kg ketamine (Imalgéne 1000, Merial) and 10 mg/kg xylazine (Rompun, Bayer) subsequently resuscitated with 1 mL saline serum intraperitoneally (i.p.). To mitigate pain effects, 0.05 mg/kg/12 h Buprenorphin was administered subcutaneously. […] Daily weight loss monitoring (usually was of 10-15% in the first 48 h post-CLP) allowed exclusion of animals not undergoing clinical sepsis.
The survival data were represented in Kaplan-Meier graphs and analysed by the Log-Rank χ^2 test. Statistical significant differences (P<0.01) were determined by 2-tailed non parametric Mann-Whitney test.
Setting [5] is: prophylactic (−1 h) 1.25 mg/kg i.p., FIG. 1D.
[6] abbreviates: therapeutic (+1 h) 1.25 mg/kg i.p., FIG. 2D.
Setting [7] is: prophylactic (−1 h) 1.25 mg/kg i.p., +4 h, +20 h post-CLP, FIG. 1C.
The mark [8] stands for this setting: therapeutic (+1 h) 1.25 mg/kg i.p., 4 and 20 h post-CLP, FIG. 2C.
The mark [9] stands for this setting: single dose 1.25 mg/kg i.p. 1 h before (−1 h) CLP induction, FIG. 1A.

Here are results for two molecules from patent US11324804B2, “Combined CD6 and imipenem therapy for treatment of infectious diseases and related inflammatory processes” (Sepsia Therapeutics, S.L., priority 2016, dated 2022).

B1: rshCD6: recombinantly obtained soluble human CD6 ectodomain (SEQ ID NO: 1) (protein, listed as Homo sapiens)
chain: DQLNTSSAESELWEPGERLPVRLTNGSSSCSGTVEVRLEASWEPACGALWDSRAAEAVCRALGCGGAEAASQLAPPTPELPPPPAAGNTSVAANATLAGAPALLCSGAEWRLCEVVEHACRSDGRRARVTCAENRALRLVDGGGACAGRVEMLEHGEWGSVCDDTWDLEDAHVVCRQLGCGWAVQALPGLHFTPGRGPIHRDQVNCSGAEAYLWDCPGLPGQHYCGHKEDAGVVCSEHQSWRLTGGADRCEGQVEVHFRGVWNTVCDSEWYPSEAKVLCQSLGCGTAVERPKGLPHSLSGRMYYSCNGEELTLSNCSWRFNNSNLCSQSLAARVLCSASRSLHNLSTPEVPASVQTVTIESSVTVKIENKESR
For B1, in the series on bacterial load (setting [5]), the “bacterial load from blood compared to saline-treated group” value is reported as “lowered”, the “bacterial load from kidney compared to saline-treated group” value was “lowered” and the “bacterial load from spleen compared to saline-treated group” value is listed as “lowered”. Moreover, in the series on bacterial load (setting [6]), the “bacterial load (cfu) from blood with regard to saline-treated group” value is “lower cfu”, the “bacterial load (cfu) from kidney with regard to saline-treated group” value is reported as “lower cfu” and the “bacterial load (cfu) from spleen with regard to saline-treated group” value was “lower cfu”. Besides, in series [1] (setting [7]), the “plasma level of IL-1β compared to saline-treated group” value is recorded as “significantly lowered”, the “plasma level of IL-6 compared to saline-treated group” value is “significantly lowered”, the “plasma level of IL-10 compared to saline-treated group” value was “higher levels” and the “plasma level of TNF-α compared to saline-treated group” value was “significantly lowered”. In addition, in series [1] (setting [8]), the “plasma level of IL-1β compared with saline-treated group” value is “lower pro-inflammatory cytokine levels, which reached statistical significance”; the “plasma level of IL-6 compared with saline-treated group” value is on record as “lower pro-inflammatory cytokine levels, which reached statistical significance”; the “plasma level of IL-10 compared with saline-treated group” value was “no differences observed”; the “plasma level of TNF-α compared with saline-treated group” value is “lower pro-inflammatory cytokine levels”. In the series on LPS-induced septic shock, the “lethal effects caused by LPS-induced septic shock” value was “counteracts the lethal effects”. Moreover, the “maximal plasma levels achieved via i.v. versus via i.p.” value in series [2] was “higher”. Moreover, in series [2] (ip), the “time of decrease to nearly basal plasma levels” value is at most 6 h and the “time of maximal rshCD6 plasma levels” value was determined as 3 h. Also, in series [2] (iv), the “time of decline to nearly basal plasma levels” value is given as at most 6 h; the “time of maximal and sustained plasma levels” value fell in the range of 1 to 3 h. Further, in series [3], the mortality entry is given as “significantly reduces”; the “serum levels of pro-inflammatory cytokines (IL-1β, IL-6 and TNF-α)” value is “significantly reduces”. In series [4] (i.p. 1 h before CLP, FIG. 1B), the “prophylactic dose giving statistical significant results on survival” value is given as “above 0.625 mg/kg” and the “prophylactic dose reaching maximal efficacy on survival” value worked out at 2.5 mg/kg. Moreover, the “optimal rshCD6 dose in mice” value in series [4] (mice) was in the range of 1.25 to 2.50 mg/kg. In series [4] (repeated dosage 1.25 mg/kg i.p. at +1 h, +3 h and +6 h post-CLP, FIG. 2B), this molecule had a survival of 26.32%. The same molecule gave a survival in series [4] (setting [9]) of 47.06%. In series [4] (single dose 1.25 mg/kg i.v. at +1 h post-CLP, FIG. 3B), this molecule came in with a survival of 30%. This molecule also returned a survival in series [4] (single dose 1.25 mg/kg i.v. at +3 h post-CLP, FIG. 3B) of 20%. The molecule also yielded a survival in series [4] (single dose 1.25 mg/kg i.v. at +6 h post-CLP, FIG. 3B) of 40%. Besides, the survival in series [4] (single infusion 1.25 mg/kg i.p. at +1 h post-CLP, FIG. 2A) amounted to 29.03%. Besides, in series [4] (single infusion 1.25 mg/kg i.p. at +3 h post-CLP, FIG. 2A), the survival worked out at 14.28%. Moreover, the survival in series [4] (single infusion 1.25 mg/kg i.p. at +6 h post-CLP, FIG. 2A) stood at 17.65%.

B2: rshCD5: purified recombinant soluble human CD5 protein, used as comparison protein (protein, UniProt P06127 25-372, looked up)
extracellular domain: RLSWYDPDFQARLTRSNSKCQGQLEVYLKDGWHMVCSQSWGRSSKQWEDPSQASKVCQRLNCGVPLSLGPFLVTYTPQSSIICYGQLGSFSNCSHSRNDMCHSLGLTCLEPQKTTPPTTRPPPTTTPEPTAPPRLQLVAQSGGQHCAGVVEFYSGSLGGTISYEAQDKTQDLENFLCNNLQCGSFLKHLPETEAGRAQDPGEPREHQPLPIQWKIQNSSCTSLEHCFRKIKPQKSGRVLALLCSGFQPKVQSRLVGGSSICEGTVEVRQGAQWAALCDSSSARSSLRWEEVCREQQCGSVNSYRVLDAGDPTSRGLFCPHQKLSQCHELWERNSYCKKVFVTCQDPNP
modifications: extracellular domain
In series [4] (setting [9]), B2 had a survival of 11.11%.
